# Measured values: patent US20100047245A1 (AbbVie / Abbott, published 2010)
# Target: recombinant purified cyno IL-12 p70 (cynomolgus monkey)
# Assay: cell-based or functional assay
# Sequence of recombinant purified cyno IL-12 p70 (cynomolgus monkey) (P48095 23-328, chain 1 of 2): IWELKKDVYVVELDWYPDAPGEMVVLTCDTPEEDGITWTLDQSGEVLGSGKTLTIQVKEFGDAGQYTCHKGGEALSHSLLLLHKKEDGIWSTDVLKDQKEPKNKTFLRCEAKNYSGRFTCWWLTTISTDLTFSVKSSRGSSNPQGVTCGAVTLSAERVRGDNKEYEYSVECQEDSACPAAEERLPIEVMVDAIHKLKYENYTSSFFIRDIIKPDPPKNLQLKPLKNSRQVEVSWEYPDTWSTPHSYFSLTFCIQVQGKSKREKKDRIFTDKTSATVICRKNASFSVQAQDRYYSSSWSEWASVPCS
# Sequence of recombinant purified cyno IL-12 p70 (cynomolgus monkey) (P48091 23-219, chain 2 of 2, further chain): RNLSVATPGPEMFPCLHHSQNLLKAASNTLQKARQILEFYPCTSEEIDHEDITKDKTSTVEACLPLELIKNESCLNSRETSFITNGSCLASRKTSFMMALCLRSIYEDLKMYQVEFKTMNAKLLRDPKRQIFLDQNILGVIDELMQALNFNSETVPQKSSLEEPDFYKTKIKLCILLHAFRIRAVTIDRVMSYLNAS
row,Binder,Average IC50 (nM) Cyno IL-12; PHA blast IFN-gamma induction assay
1,"8E1-Chim (antibody, human IgG1, V domains shown) VH: EVKLVESGGGLVQPGGSRKLSCAASGFTFSDYGMVWVRQAPGKGLEWVASISSGSSNIYYADTVKGRFTISRDDPNNTLFLQMRSLRSEDTAMYYCARNPYWGQGTTLTVSS VL: DIVMTQSQKFMSTSVGDRVSVTCKASQNVGTNVAWYQQKPGQSPKGLIYSASHRYSGVPDRFAGSGSGTDFTLTISNVQSEDLAEYFCQQYNSYPLTFGGGTKLELKR",0.15 nM
2,"1D4-Chim (antibody, human IgG1, V domains shown) VH: QVTLKESGPGILQPSQTLSLTCSFSGFSLRKSVMGVSWIRQPSGKGLEWLAHIYWDDDKYYNPSLKSRLTISKDPSRNQVFLKITSVDTADAATYYCTRRGIRSAMDYWGQGTSVTVSS VL: SVVMTQTPKFLLVSAGDRVTITCKASQSVSNDVAWYQQKPGQSPKLLIYYASNRYTGVPDRFTGSGYGTDFTFIISTVRAEDLAVYFCQQDYNSPWTFGGGTKLEIKR",0.07 nM
3,"3G7-Chim (antibody, human IgG1, V domains shown) VH: QVQLQQSGAELMKPGASVKISCKATGYTFNDYWIEWVKQRPGHGLEWIGGFSHGSGSTNYNEKFKGKATFTADSSSNTAYMQLSSLTSEDSAVYYCARRRFRGMDYWGQGTSVTVSS VL: SIVMTQTPKFLLVSAGDRVTITCKASQSVSNDVAWYQQKPGQSPKLLIYYASNRYTGVPDRFTGSGYGTDFTFTITTVQAEDLAVYFCQQDYSSPWSFGGGTKLEIKR",0.32 nM
4,"1A6-Chim (antibody, human IgG1, V domains shown) VH: QVTLKESGPGILKPSQTLSLTCSFSGFSLSTSGMGVSWIRQPSGKGLEWLAHIWWDGDNYYNPSLKSQLTISKDTSRNQVFLRIATVDTADTATYYCARRTRVNYAMDYWGQGTSVTVSS VL: SVVMTQTPKFLLVSAGDRVTITCKASQSVSNDVAWFQQKPGQSPKLLIYYASNRYTGVPDRFTGSGYGTDFTFTISTVQAEDLAVYFCQQDYNSPWTFGGGTKLEIKR",0.02 nM
